The text below walks through data of patent US20190142860A1, “NUCLEIC ACID BASED TIA-1 INHIBITORS” (Aquinnah Pharmaceuticals, Inc., priority 2015, published 2019).

Entries after “also recorded” stand apart in the source; their conditions may differ. Residues, ends and D or L forms follow the SMILES beside them. *: point of attachment. Cbz = O=C(OCc1ccccc1)*

The subject of assay [1] is tau-induced TIA1+ SGs in HT22 cells. Description: PKR / PERK inhibitors on tau-mediated SG formation. It is filed as cell-based, mouse. Particulars: TIA1 ± WT tau, 24 hrs, C16 1 μM, GSK2606414 50 nM. As for the experimental part: The eukaryotic translation initiation factor eIF2α is regulated by phosphorylation. […] SGs were induced by transfection with TIA1±WT tau. After 24 hrs the cells were treated with inhibitors of PKR (C16, 1 μM, Sigma) or PERK (GSK2606414, 50 nM, EMD/Millipore), and then SG number was quantified after 24 hrs.

The next assay deals with tau. Description: Tau levels with TIA1 over-expression under proteasome or autophagy inhibition, immunoblot in HT22 cells. It counts as cell-based, mouse. The settings on record: overnight, MG132 5 μM, chloroquine 50 μM. As for the experimental part: Immunoblots were preformed using gradient PAGE on a 15-well 4-12% Bis-Tris gel (Invitrogen). Blocking was done in 5% milk for lhr at RT. Primary antibody incubation was at 4° C. overnight with 1:7,500 mouse monoclonal Tau13, 1:500 mouse monoclonal PHF1, 1:500 goat polyclonal TIA1 (Santa Cruz), 1:500 mouse monoclonal synaptophysin (Santa Cruz), 1:1,000 mouse monoclonal PSD-95 (NeuroMab), 1:1,000 rabbit polyclonal caspase-3 or cleaved caspase 3 (Cell Signaling), or 1:10,000 mouse monoclonal actin (Millipore) in PBS. Secondary antibody was incubated in 5% milk for 1 hr at RT. Developing was done using SuperSignal West Pico Substrate (Thermo).

Assay [2] has as its system granules positive for TIA1 and phospho-tau (P-S396/404, PHF1). Description: Tau kinase inhibitor study: TIA1+ SGs and PHF1+ tau granules. It counts as cell-based, mouse. Particulars: HT22 cells, TIA1 and WT tau, 24 hrs; for formation of granules positive for TIA1 and phospho-tau (SGs and tau granules): XXVI 20 μM, CDK2/5 inhibitor 5 μM, SB203580 20 μM, 39621 20 μM, PP2 20 nM.

Assay [3] addresses Nucleolysin TIA-1 (endogenous mouse TIA1) (mouse) (UniProt P52912). Description: TIA1 IP-MS, tau KO 2 cortex.
Assay [4] has the same target. Description: TIA1 IP-MS, tau KO 3 cortex.
For assay [5] the target is unchanged. The assay is described as follows: TIA1 IP-MS, WT1 cortex.
Assay [6] shares this target. The assay is described as follows: TIA1 IP-MS, WT3 cortex.
For assay [7] the target is unchanged. The assay is described as follows: TIA1 IP-MS, WT2 cortex.
For assay [8] the target is unchanged. Description: TIA1 IP-MS, tau KO 1 cortex.

Chain of UniProt P52912 (P52912 whole entry): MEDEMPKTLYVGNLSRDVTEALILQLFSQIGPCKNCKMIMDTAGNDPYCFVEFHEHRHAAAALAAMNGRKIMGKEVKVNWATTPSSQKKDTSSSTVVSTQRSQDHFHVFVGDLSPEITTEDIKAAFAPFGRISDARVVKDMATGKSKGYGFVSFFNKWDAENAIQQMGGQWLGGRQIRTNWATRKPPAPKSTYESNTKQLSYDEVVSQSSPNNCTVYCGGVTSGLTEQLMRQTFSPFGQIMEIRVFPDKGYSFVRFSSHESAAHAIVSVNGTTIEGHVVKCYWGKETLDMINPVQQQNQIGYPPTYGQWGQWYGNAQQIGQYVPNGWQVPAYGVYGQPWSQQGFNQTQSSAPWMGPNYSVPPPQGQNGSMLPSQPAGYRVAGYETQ

Take `O=C1Nc2ccc3ncsc3c2/C1=C/c1cnc[nH]1` [C16]: the “tau-mediated SG formation (SG number)” value in assay [1] is reported as “strongly inhibited; also recorded: Inhibition”.

On to `Cn1cc(-c2ccc3c(c2)CCN3C(=O)Cc2cccc(C(F)(F)F)c2)c2c(N)ncnc21` [GSK2606414], for which, in [1], the “tau-mediated SG formation (SG number)” value is recorded as “strongly inhibited; also recorded: Inhibition”.

In the case of `CC(C)C[C@@H](C=O)NC(=O)[C@H](CC(C)C)NC(=O)[C@H](CC(C)C)NC(=O)OCc1ccccc1` [MG132] (Cbz-Leu-Leu-Leu-aldehyde), in the assay on tau, the “decreases in tau associated with TIA1 over-expression” value is recorded as “neither MG132 nor chloroquine prevented decreases in tau”.

Consider `CC(C)(C)n1nc(-c2ccc(Cl)cc2)c2c(N)ncnc21` [PP2], for which, in assay [2], the “formation of granules positive for TIA1 and phospho-tau (SGs and tau granules)” value (“formation of granules positive” for short) was “inhibition of SGs and tau granules”.

As for `C[S+]([O-])c1ccc(-c2nc(-c3ccncc3)c(-c3ccc(F)cc3)[nH]2)cc1` (stereo not drawn) [SB203580], in [2], the “SG inhibition, comparison among the kinase inhibitors” value was “strongest SG inhibition”; the “formation of granules positive” value is reported as “Inhibition”.

In the case of `Cn1cc(-c2[nH][nH]c(=O)c2-c2cn(C)c3ccccc23)c2ccccc21` [XXVI], in assay [2], the “formation of granules positive” value is “inhibition of SGs and tau granules”.

Take `CCN(CC)CCCC(C)Nc1ccnc2cc(Cl)ccc12` (stereo not drawn) [chloroquine]: the “decreases in tau associated with TIA1 over-expression” value in the assay with tau is “neither MG132 nor chloroquine prevented decreases in tau”.

For the compound “Synaptosomal-associated protein 25 (from UniProt P60879 1-206)”, the total ion current (normalized to TIA1 = 1000) in assay [3] worked out at 138; in assay [4], 0; in assay [5], 0; in [6], 0; in assay [7] it was 165; in assay [8] it was 0.

Take Syntaxin-1B (from UniProt P61264 1-288): the total ion current (normalized to TIA1 = 1000) in [3] is 26.9; in [4], 0; in [5], 0; in [6] it was 0; in assay [7], 99.7; in assay [8], 0.

Regarding “Thy-1 membrane glycoprotein (from UniProt P01831 20-131)”, the total ion current (normalized to TIA1 = 1000) worked out at 0 in [3]; 0 in [4]; 0 in [5]; 57.7 in [6]; 75.2 in assay [7]; 0 in assay [8].

In the case of “Transcriptional activator protein Pur-alpha (from UniProt P42669 2-321)”, the total ion current (normalized to TIA1 = 1000) is 39.7 in [3]; 0 in assay [4]; 0 in assay [5]; 269 in [6]; 264 in [7]; 0 in assay [8].

In the case of “Transformer-2 protein homolog beta (from UniProt P62996 2-288)”, the total ion current (normalized to TIA1 = 1000) was 33.3 in assay [3]; 0 in [4]; 0 in assay [5]; 0 in assay [6]; 70.9 in [7]; 0 in [8].

With “Tripartite motif-containing protein 2 (from UniProt Q9ESN6 1-744)”, the total ion current (normalized to TIA1 = 1000) in assay [3] is 0; in [4] it was 0; in [5], 0; in [6], 0; in [7], 106; in assay [8] it was 0.

As for “Tubulin polymerization-promoting protein (from UniProt Q7TQD2 1-218)”, the total ion current (normalized to TIA1 = 1000) in [3] amounted to 40.4; in assay [4], 0; in assay [5] it was 0; in [6], 220; in assay [7], 299; in [8] it was 0.

“U1 small nuclear ribonucleoprotein 70 kDa (from UniProt Q62376 2-448)”: the total ion current (normalized to TIA1 = 1000) in assay [3] was 0; in assay [4], 0; in assay [5] it was 6.22; in [6], 0; in [7] it was 0; in assay [8], 0.

Regarding “Ubiquitin thioesterase OTUB1 (from UniProt Q7TQI3 2-271)”, the total ion current (normalized to TIA1 = 1000) in [3] worked out at 16.9; in assay [4] it was 0; in assay [5], 0; in assay [6] it was 45.6; in [7], 80.5; in assay [8], 0.

For “V-type proton ATPase catalytic subunit A (from UniProt P50516 1-617)”, the total ion current (normalized to TIA1 = 1000) in assay [3] is 214; in [4], 0; in [5] it was 0; in assay [6], 71.9; in assay [7], 319; in assay [8], 0.

In the case of “V-type proton ATPase subunit H (from UniProt Q8BVE3 1-483)”, the total ion current (normalized to TIA1 = 1000) in assay [3] was 30.3; in assay [4], 0; in assay [5], 0; in assay [6], 57.6; in [7], 101; in assay [8] it was 0.

With “Vesicular glutamate transporter 1 (from UniProt Q3TXX4 1-560)”, the total ion current (normalized to TIA1 = 1000) in assay [3] is 64.5; in [4], 0; in [5], 0; in assay [6] it was 0; in assay [7] it was 141; in assay [8], 130.

Take alkylbenzyldimethyammonium chloride: in assay [2], the “formation of granules positive” value is “inhibition of SGs and tau granules”.
